Experimental data from patent publication US11946041B2, “Modification of polypeptides” (BicycleRD Limited, priority 2017, dated 2024).

How the values were obtained:
CCR4 [1] = target: T1, CCR4 (Homo sapiens, UniProt P51679); assay: PathHunter eXpress CCR4 CHO-K1 β-Arrestin GPCR Assay, agonist format; assay type: cell-based
T1 construct: host or cells: CHO-K1
T1 sequence (P51679 1-360): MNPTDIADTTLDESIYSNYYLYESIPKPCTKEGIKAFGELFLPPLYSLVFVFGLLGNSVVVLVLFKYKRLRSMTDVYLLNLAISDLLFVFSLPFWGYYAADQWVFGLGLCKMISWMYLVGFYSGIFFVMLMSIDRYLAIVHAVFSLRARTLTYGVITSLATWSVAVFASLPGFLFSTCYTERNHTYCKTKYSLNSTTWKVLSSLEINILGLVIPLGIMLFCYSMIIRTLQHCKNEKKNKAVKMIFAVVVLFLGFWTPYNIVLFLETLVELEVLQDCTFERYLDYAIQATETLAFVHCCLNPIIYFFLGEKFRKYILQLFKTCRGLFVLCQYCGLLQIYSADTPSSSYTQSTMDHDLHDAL
Experimental: (§1) The aim of the present experiment was to analyze if if these peptides are functional using a Discoverx Assay, the Beta-Arrestin recruitment assay, to identify agonism or antagonism in the selected peptides.
(§2) Standard protocols used: • PathHunter® eXpress CCR4 CHO-K1 β-Arrestin GPCR Assay. 100 dp (1×96-well)
(§3) The experiment was carried using the manufacturer instructions.
The concentration was increased to test for response at high concentration.

CCR4 [2] = target: T1, CCR4; assay: PathHunter eXpress CCR4 CHO-K1 β-Arrestin GPCR Assay, antagonist format with CCL22; assay type: cell-based; conditions: for antagonist for CCR4: 1 nM CCL22
Experimental: as §1, §2, §3
We therefore used the assay in an antagonist format, using 10 nM CCL22.
We repeated this experiment lowering the concentration of CCL22 from 10 nM to 1 nM to show a full inhibition curve.

## ACQLTCLPPPRQPGCA [24-15-00-N001, bicyclic peptide ligand, TATA scaffold, from CCR4 cell-based selection]
CCR4 [1]; 0.006 nM
  Raw Data: 28566
CCR4 [1]; 0.02 nM
  Raw Data: 27298
CCR4 [1]; 0.06 nM
  Raw Data: 26888
CCR4 [1]; 0.17 nM
  Raw Data: 28025
CCR4 [1]; 0.51 nM
  Raw Data: 31189
CCR4 [1]; 1.5 nM
  Raw Data: 30670
CCR4 [1]; 4.6 nM
  Raw Data: 27635
CCR4 [1]; 13.9 nM
  Raw Data: 25509
CCR4 [1]; 41.7 nM
  Raw Data: 24463
CCR4 [1]; 125 nM
  Raw Data: 22916
CCR4 [1]; 375 nM
  Raw Data: 24222
CCR4 [1]; high concentration, 0.001 uM
  Raw Data: 10900
CCR4 [1]; high concentration, 0.003 uM
  Raw Data: 11501
CCR4 [1]; high concentration, 0.008 uM
  Raw Data: 12079
CCR4 [1]; high concentration, 0.023 uM
  Raw Data: 12121
CCR4 [1]; high concentration, 0.1 uM
  Raw Data: 13265
CCR4 [1]; high concentration, 0.2 uM
  Raw Data: 13225
CCR4 [1]; high concentration, 0.6 uM
  Raw Data: 13586
CCR4 [1]; high concentration, 1.9 uM
  Raw Data: 13457
CCR4 [1]; high concentration, 5.6 uM
  Raw Data: 13067
CCR4 [1]; high concentration, 16.7 uM
  Raw Data: 13469
CCR4 [1]; high concentration, 50 uM
  Raw Data: 10917
CCR4 [2]
  range of antagonism activity: micromolar range
  antagonist for CCR4: antagonist
CCR4 [2]; 1 nM CCL22, 0.001 uM
  Raw Data: 244512
CCR4 [2]; 1 nM CCL22, 0.003 uM
  Raw Data: 269008
CCR4 [2]; 1 nM CCL22, 0.008 uM
  Raw Data: 278839
CCR4 [2]; 1 nM CCL22, 0.023 uM
  Raw Data: 265078
CCR4 [2]; 1 nM CCL22, 0.1 uM
  Raw Data: 267763
CCR4 [2]; 1 nM CCL22, 0.2 uM
  Raw Data: 233858
CCR4 [2]; 1 nM CCL22, 0.6 uM
  Raw Data: 230668
CCR4 [2]; 1 nM CCL22, 1.9 uM
  Raw Data: 210573
CCR4 [2]; 1 nM CCL22, 5.6 uM
  Raw Data: 168855
CCR4 [2]; 1 nM CCL22, 16.7 uM
  Raw Data: 47343
CCR4 [2]; 1 nM CCL22, 50 uM
  Raw Data: 37690
CCR4 [2]; 10 nM CCL22
  IC80: 14 µM
CCR4 [2]; 10 nM CCL22, 0.001 uM
  Raw Data: 166495
CCR4 [2]; 10 nM CCL22, 0.003 uM
  Raw Data: 152456
CCR4 [2]; 10 nM CCL22, 0.008 uM
  Raw Data: 159966
CCR4 [2]; 10 nM CCL22, 0.023 uM
  Raw Data: 163145
CCR4 [2]; 10 nM CCL22, 0.1 uM
  Raw Data: 162443
CCR4 [2]; 10 nM CCL22, 0.2 uM
  Raw Data: 160790
CCR4 [2]; 10 nM CCL22, 0.6 uM
  Raw Data: 164042
CCR4 [2]; 10 nM CCL22, 1.9 uM
  Raw Data: 149995
CCR4 [2]; 10 nM CCL22, 5.6 uM
  Raw Data: 119202
CCR4 [2]; 10 nM CCL22, 16.7 uM
  Raw Data: 94688
CCR4 [2]; 10 nM CCL22, 50 uM
  Raw Data: 55746

## ACQLTCLTPARQPGCA [24-14-00-N001, bicyclic peptide ligand, TATA scaffold, from CCR4 cell-based selection]
CCR4 [1]; 0.006 nM
  Raw Data: 28548
CCR4 [1]; 0.02 nM
  Raw Data: 25603
CCR4 [1]; 0.06 nM
  Raw Data: 30232
CCR4 [1]; 0.17 nM
  Raw Data: 28531
CCR4 [1]; 0.51 nM
  Raw Data: 32968
CCR4 [1]; 1.5 nM
  Raw Data: 30785
CCR4 [1]; 4.6 nM
  Raw Data: 27510
CCR4 [1]; 13.9 nM
  Raw Data: 24521
CCR4 [1]; 41.7 nM
  Raw Data: 24892
CCR4 [1]; 125 nM
  Raw Data: 21899
CCR4 [1]; 375 nM
  Raw Data: 20214
CCR4 [1]; high concentration, 0.001 uM
  Raw Data: 10817
CCR4 [1]; high concentration, 0.003 uM
  Raw Data: 11788
CCR4 [1]; high concentration, 0.008 uM
  Raw Data: 12385
CCR4 [1]; high concentration, 0.023 uM
  Raw Data: 12607
CCR4 [1]; high concentration, 0.1 uM
  Raw Data: 12143
CCR4 [1]; high concentration, 0.2 uM
  Raw Data: 13151
CCR4 [1]; high concentration, 0.6 uM
  Raw Data: 12839
CCR4 [1]; high concentration, 1.9 uM
  Raw Data: 12725
CCR4 [1]; high concentration, 5.6 uM
  Raw Data: 12720
CCR4 [1]; high concentration, 16.7 uM
  Raw Data: 12239
CCR4 [1]; high concentration, 50 uM
  Raw Data: 13314
CCR4 [2]
  antagonist for CCR4: antagonist
CCR4 [2]; 1 nM CCL22, 0.001 uM
  Raw Data: 240299
CCR4 [2]; 1 nM CCL22, 0.003 uM
  Raw Data: 222439
CCR4 [2]; 1 nM CCL22, 0.008 uM
  Raw Data: 212749
CCR4 [2]; 1 nM CCL22, 0.023 uM
  Raw Data: 212035
CCR4 [2]; 1 nM CCL22, 0.1 uM
  Raw Data: 215827
CCR4 [2]; 1 nM CCL22, 0.2 uM
  Raw Data: 201484
CCR4 [2]; 1 nM CCL22, 0.6 uM
  Raw Data: 200525
CCR4 [2]; 1 nM CCL22, 1.9 uM
  Raw Data: 198268
CCR4 [2]; 1 nM CCL22, 5.6 uM
  Raw Data: 171795
CCR4 [2]; 1 nM CCL22, 16.7 uM
  Raw Data: 116828
CCR4 [2]; 1 nM CCL22, 50 uM
  Raw Data: 102610
CCR4 [2]; 10 nM CCL22, 0.001 uM
  Raw Data: 163937
CCR4 [2]; 10 nM CCL22, 0.003 uM
  Raw Data: 138339
CCR4 [2]; 10 nM CCL22, 0.008 uM
  Raw Data: 156373
CCR4 [2]; 10 nM CCL22, 0.023 uM
  Raw Data: 159753
CCR4 [2]; 10 nM CCL22, 0.1 uM
  Raw Data: 168602
CCR4 [2]; 10 nM CCL22, 0.2 uM
  Raw Data: 151985
CCR4 [2]; 10 nM CCL22, 0.6 uM
  Raw Data: 158845
CCR4 [2]; 10 nM CCL22, 1.9 uM
  Raw Data: 143688
CCR4 [2]; 10 nM CCL22, 5.6 uM
  Raw Data: 150686
CCR4 [2]; 10 nM CCL22, 16.7 uM
  Raw Data: 132736
CCR4 [2]; 10 nM CCL22, 50 uM
  Raw Data: 138731

## ACQTLCNTAEDIRCA [24-16-00-N001, bicyclic peptide ligand, TBMB scaffold, from CCR4 cell-based selection]
CCR4 [1]; 0.006 nM
  Raw Data: 23153
CCR4 [1]; 0.02 nM
  Raw Data: 23757
CCR4 [1]; 0.06 nM
  Raw Data: 25748
CCR4 [1]; 0.17 nM
  Raw Data: 25062
CCR4 [1]; 0.51 nM
  Raw Data: 25030
CCR4 [1]; 1.5 nM
  Raw Data: 24736
CCR4 [1]; 4.6 nM
  Raw Data: 22899
CCR4 [1]; 13.9 nM
  Raw Data: 20756
CCR4 [1]; 41.7 nM
  Raw Data: 20583
CCR4 [1]; 125 nM
  Raw Data: 20012
CCR4 [1]; 375 nM
  Raw Data: 20361
CCR4 [1]; high concentration, 0.001 uM
  Raw Data: 10927
CCR4 [1]; high concentration, 0.003 uM
  Raw Data: 11906
CCR4 [1]; high concentration, 0.008 uM
  Raw Data: 12502
CCR4 [1]; high concentration, 0.023 uM
  Raw Data: 12701
CCR4 [1]; high concentration, 0.1 uM
  Raw Data: 13482
CCR4 [1]; high concentration, 0.2 uM
  Raw Data: 13403
CCR4 [1]; high concentration, 0.6 uM
  Raw Data: 14951
CCR4 [1]; high concentration, 1.9 uM
  Raw Data: 14247
CCR4 [1]; high concentration, 5.6 uM
  Raw Data: 14263
CCR4 [1]; high concentration, 16.7 uM
  Raw Data: 13237
CCR4 [1]; high concentration, 50 uM
  Raw Data: 13817
CCR4 [2]; 1 nM CCL22, 0.001 uM
  Raw Data: 244145
CCR4 [2]; 1 nM CCL22, 0.003 uM
  Raw Data: 250550
CCR4 [2]; 1 nM CCL22, 0.008 uM
  Raw Data: 249215
CCR4 [2]; 1 nM CCL22, 0.023 uM
  Raw Data: 247868
CCR4 [2]; 1 nM CCL22, 0.1 uM
  Raw Data: 246609
CCR4 [2]; 1 nM CCL22, 0.2 uM
  Raw Data: 225038
CCR4 [2]; 1 nM CCL22, 0.6 uM
  Raw Data: 213774
CCR4 [2]; 1 nM CCL22, 1.9 uM
  Raw Data: 213016
CCR4 [2]; 1 nM CCL22, 5.6 uM
  Raw Data: 186217
CCR4 [2]; 1 nM CCL22, 16.7 uM
  Raw Data: 150731
CCR4 [2]; 1 nM CCL22, 50 uM
  Raw Data: 107480
CCR4 [2]; 10 nM CCL22, 0.001 uM
  Raw Data: 155442
CCR4 [2]; 10 nM CCL22, 0.003 uM
  Raw Data: 169611
CCR4 [2]; 10 nM CCL22, 0.008 uM
  Raw Data: 142089
CCR4 [2]; 10 nM CCL22, 0.023 uM
  Raw Data: 158472
CCR4 [2]; 10 nM CCL22, 0.1 uM
  Raw Data: 157585
CCR4 [2]; 10 nM CCL22, 0.2 uM
  Raw Data: 159872
CCR4 [2]; 10 nM CCL22, 0.6 uM
  Raw Data: 147765
CCR4 [2]; 10 nM CCL22, 1.9 uM
  Raw Data: 143871
CCR4 [2]; 10 nM CCL22, 5.6 uM
  Raw Data: 140714
CCR4 [2]; 10 nM CCL22, 16.7 uM
  Raw Data: 167890
CCR4 [2]; 10 nM CCL22, 50 uM
  Raw Data: 138655
